The target in this assay is T1, GαoA, wild type, full-length, hexahistidine-tagged (UniProt P09471 1-354).
T1 construct: also called wild type GαoA
Description: SPR; Biacore 3000; GST-RGS12 RGS domain captured on anti-GST antibody on a CM5 chip; Gαo injected in the GDP·AlF4- state; equilibrium binding isotherm. Particulars: both partners purified. (In general: Surface plasmon resonance follows binding to a sensor surface in real time, without labels.)

T1 sequence (P09471 whole entry): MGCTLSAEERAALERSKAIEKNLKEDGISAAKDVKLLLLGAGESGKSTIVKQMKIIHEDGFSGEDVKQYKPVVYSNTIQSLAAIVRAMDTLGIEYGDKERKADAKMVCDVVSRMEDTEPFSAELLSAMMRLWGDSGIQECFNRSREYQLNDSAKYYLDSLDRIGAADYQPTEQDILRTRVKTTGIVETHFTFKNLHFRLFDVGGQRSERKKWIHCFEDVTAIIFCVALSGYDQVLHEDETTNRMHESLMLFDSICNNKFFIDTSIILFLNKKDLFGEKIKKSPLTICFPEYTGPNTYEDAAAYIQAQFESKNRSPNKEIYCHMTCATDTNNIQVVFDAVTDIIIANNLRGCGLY

B1: GST fusion of the RGS12 RGS domain (aa 664–885) (domain or fragment, UniProt O14924 664-885, looked up)
chain: DLESATVSDGELTGADLKDCVSNNSLSSNASLPSVQSCRRLRERRVASWAVSFERLLQDPVGVRYFSDFLRKEFSEENILFWQACEYFNHVPAHDKKELSYRAREIFSKFLCSKATTPVNIDSQAQLADDVLRAPHPDMFKEQQLQIFNLMKFDSYTRFLKSPLYQECILAEVEGRALPDSQQVPSSPASKHSLGSDHSSVSTPKKLSGKSKSGRSLNEELG
notes: also called GST-RGS12
Regarding B1, the affinity, expressed as Kd, was 1270 nM.

By Kd is commonly meant the free concentration of one partner at which half of the binding sites on the other are occupied at equilibrium, for simple one-to-one binding.

(Values after paper PMC3285607, “A P-loop Mutation in Gα Subunits Prevents Transition to the Active State: Implications for G-protein Signaling in Fungal Pathogenesis” (PLoS Pathogens, 2012).)
